Article PMC7840129, “Structural basis for heme-dependent NCoR binding to the transcriptional repressor REV-ERBβ” (Science Advances, 2021)

Tested on: REV-ERBβ LBD / NCoR RID
Assay: Chemical cross-linking mass spectrometry (XL-MS)
Format: binding
Conditions: apo LBD and heme-bound LBD ± RID; DSSO
Experimental: Apo or heme-bound REV-ERBβ LBD and NCoR RID protein samples were cross-linked in Hepes gel filtration buffer [25 mM Hepes (pH 7.5) at room temperature, 50 mM NaCl, and 0.5 mM TCEP]. Non–cross-linked negative controls were generated using the same procedure without the addition of DSSO (Thermo Fisher Scientific). Samples included 4 μM apo LBD with or without 2 μM RID and 4 μM heme-bound LBD with or without 2 μM RID; complexes were preincubated 1 hour on ice. Reactions were initiated by spiking DSSO in DMSO at a final concentration of 600 μM in 50-μl solutions. The final molar ratio of cross-linker:protein was 100:1. The reactions were incubated at 25°C for 45 min before being quenched by the addition of tris (pH 8.0) to a final concentration of 50 mM. Each cross-link reaction was done in triplicate, and the reaction replicates were pooled after quenching. Samples (10 μl) were loaded for SDS-PAGE analysis with Coomassie staining to confirm the presence of cross-linked protein. The remaining cross-linked and non–cross-linked samples were then acetone-precipitated at −20°C overnight, and the protein was pelleted by centrifugation at 16,000 relative centrifugal force (rcf) for 5 min at 4°C. After decanting, the pellets were dried for 15 min at room temperature before being resuspended in 12.5 μl of resuspension buffer [50 mM ammonium bicarbonate and 8 M urea (pH 8.0)]. […]

B1: WT RID: mouse NCoR RID (residues 1942 to 2208 in the X50 splice variant) (protein, UniProt Q60974 1942-2208, looked up, fragment)
chain: TITAANFIDVIITRQIASDKDARERGSQSSDSSSSLSSHRYETASDAIEVISPASSPAPPQEKPQAYQPDMVKANQAENESTRQYEGPLHHYRSQQESPSPQQQPPLPPSSQSEGMGQVPRTHRLITLADHICQIITQDFARNQVPSQASTSTFQTSPSALSSTPVRTKTSSRYSPESQSQTVLHPRPGPRVSPENLVDKSRGSRPGKSPERSHIPSEPYEPISPPQGPAVHEKQDSMLLLSQRGVDPAEQRSDSRSPGSISYLPSF
modifications: X50 splice variant
B1 was tested, and the “effect of RID on LBD-LBD cross-links” value was “enhanced LBD-LBD cross-links”.
